Measurements reported in paper PMC10338342, “Cooperation between bHLH transcription factors and histones for DNA access” (Nature, 2023).
Values belong to the binder of their own block, whether it stands above or below them.

B1: BMAL1 bHLH PAS-AB (residues 62-441), chain of the CLOCK-BMAL1 heterodimer (domain or fragment)
chain: not shown
notes: BMAL1, mouse, bHLH PAS-AB, residues 62-441; Always present as part of m1; made a molecule of its own for the contacts that the structures and cross-links assign to BMAL1

What was measured:
[1] = target: histone H3.1 (human), in the nucleosome (human, UniProt P68431 1-136); assay: cross-linking; XL-MS with DSSO, TF and nucleosome mixed 1.5:1; CLOCK-BMAL1 with NCP SHL−6.2; details: both partners purified
[2] = target: T1, histone H4 (human), in the nucleosome (human, UniProt P62805 1-103); assay: cryo-EM structure; CLOCK-BMAL1 on a W601-variant nucleosome with a histone-facing E-box at SHL−6.2 (1:3 NCP:TF), GraFix cross-linked; 3.8 Å overall; PAS domains placed by Rosetta local docking with density scoring and one cross-link; details: both partners purified
T1 construct: Always part of m4; source: in the reconstituted nucleosome

[3] = target: T2, mouse BMAL1 bHLH (residues 73–135) with an additional C-terminal tryptophan (mouse, UniProt Q9WTL8 73-135); assay: SEC; CLOCK bHLH and BMAL1 bHLH purified separately, mixed at equimolar ratios, about one hour on ice, S75 10/300 GL column; details: both partners purified
T2 construct: BMAL1, mouse, bHLH, residues 73-135; additional tryptophan engineered at the C terminus to allow for UV detection; source: E. coli vector (pET28-derived), expressed and purified separately (HisTrap HP)

[4] = target: B1; assay: cryo-EM structure; CLOCK-BMAL1 on a W601-variant nucleosome with a solvent-exposed E-box at SHL+5.8 (1:1.5 NCP:TF), GraFix glutaraldehyde cross-linked; 3.6 Å overall, PAS domains 9-11 Å; details: both partners purified
[5] = target: T1, histone H4 (human), in the nucleosome; assay: cryo-EM structure; CLOCK-BMAL1 on the endogenous Por enhancer nucleosome with tandem E-boxes 7 bp apart (1:3), GraFix cross-linked; 3.8 Å overall; details: both partners purified
[6] = target: the molecule itself; assay: as above

Binder: B1
binding result [1]: binds | binding result [2]: binds

B4: CLOCK-BMAL1 bHLH PAS-AB heterodimer (complex)
chain 1: VEEDDKDKAKRVSRNKSEKKRRDQFNVLIKELGSMLPGNARKMDKSTVLQKSIDFLRKHKETTAQSDASEIRQDWKPTFLSNEEFTQLMLEALDGFFLAIMTDGSIIYVSESVTSLLEHLPSDLVDQSIFNFIPEGEHSEVYKILSTHLLESDSLTPEYLKSKNQLEFCCHMLRGTIDPKEPSTYEYVRFIGNFKSLTSVSTSTHNGFEGTIQRTHRPSYEDRVCFVATVRLATPQFIKEMCTVEEPNEEFTSRHSLEWKFLFLDHRAPPIIGYLPFEVLGTSGYDYYHVDDLENLAKCHEHLMQYGKGKSCYYRFLTKGQQWIWLQTHYYITYHQWNSRPEFIVCTHTVVSYAEVRAERRRELGIEESL
chain 2: not shown
notes: CLOCK, mouse, bHLH PAS-AB, residues 26-395; BMAL1, mouse, bHLH PAS-AB, residues 62-441; also called CB; CLOCK-BMAL1 WT; source: insect cells (Spodoptera frugiperda or Hi5), purified (Ni-NTA, TEV cleavage, heparin, Superdex 200); copies: 1 + 1
binding result [6]: binds

Further lines, results first:

binding result [3]: binds
B2: mouse CLOCK bHLH (residues 29–89) with an additional C-terminal tryptophan (domain or fragment)
chain: DDKDKAKRVSRNKSEKKRRDQFNVLIKELGSMLPGNARKMDKSTVLQKSIDFLRKHKETTAW
notes: CLOCK, mouse, bHLH, residues 29-89; additional tryptophan engineered at the C terminus to allow for UV detection; source: E. coli vector (pET28-derived), expressed and purified separately (HisTrap HP)

binding result [4]: binds | binding result [5]: binds
B3: CLOCK bHLH PAS-AB (residues 26-395), chain of the CLOCK-BMAL1 heterodimer (domain or fragment, mouse, UniProt O08785 26-395, looked up)
chain: VEEDDKDKAKRVSRNKSEKKRRDQFNVLIKELGSMLPGNARKMDKSTVLQKSIDFLRKHKETTAQSDASEIRQDWKPTFLSNEEFTQLMLEALDGFFLAIMTDGSIIYVSESVTSLLEHLPSDLVDQSIFNFIPEGEHSEVYKILSTHLLESDSLTPEYLKSKNQLEFCCHMLRGTIDPKEPSTYEYVRFIGNFKSLTSVSTSTHNGFEGTIQRTHRPSYEDRVCFVATVRLATPQFIKEMCTVEEPNEEFTSRHSLEWKFLFLDHRAPPIIGYLPFEVLGTSGYDYYHVDDLENLAKCHEHLMQYGKGKSCYYRFLTKGQQWIWLQTHYYITYHQWNSRPEFIVCTHTVVSYAEVRAERRRELGIEESL
notes: CLOCK, mouse, bHLH PAS-AB, residues 26-395; Always present as part of m1; made a molecule of its own for the contacts that the structures and cross-links assign to CLOCK
